Patent publication US20040248787A1

Molecular target: normal MITF (M type), expressed from plasmid pSU063 (MITF-M/pCDNA3) in COS7 cells (UniProt Q08874)
Test: cell-based or functional assay

Chain of UniProt Q08874 (Q08874 other isoform, or with tags, fused parts or gaps limits assumed): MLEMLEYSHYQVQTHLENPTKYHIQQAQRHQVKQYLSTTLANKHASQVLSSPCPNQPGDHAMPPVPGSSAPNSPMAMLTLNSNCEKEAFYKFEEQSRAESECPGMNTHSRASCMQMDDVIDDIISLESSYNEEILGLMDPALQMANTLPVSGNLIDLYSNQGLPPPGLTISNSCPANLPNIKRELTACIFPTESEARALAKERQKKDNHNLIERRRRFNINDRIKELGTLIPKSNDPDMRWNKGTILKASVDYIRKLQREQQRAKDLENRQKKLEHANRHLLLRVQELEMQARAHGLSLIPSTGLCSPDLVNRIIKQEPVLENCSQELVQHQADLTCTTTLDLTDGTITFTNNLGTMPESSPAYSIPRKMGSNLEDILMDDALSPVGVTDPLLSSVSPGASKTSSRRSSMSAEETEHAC

Substance | Luciferase activity (c-kit promoter R-luc reporter in COS7 cells, PBS addition taken as 1) (relative to PBS = 1)
His Tag-PTD-wh variant of MITF (from UniProt Q08874 119-526) | 0.72
His Tag-PTD-mi variant of MITF (from UniProt Q08874 119-526) | 0.92
